The record followed here is article PMC7864068, “α2-Macroglobulin-like protein 1 can conjugate and inhibit proteases through their hydroxyl groups, because of an enhanced reactivity of its thiol ester” (The Journal of Biological Chemistry, 2021).

In assay [1] the target is T1, A2ML1 (α2-macroglobulin-like protein 1) (Homo sapiens, UniProt A8K2U0).
T1 construct: full-length recombinant, secreted by HEK293 Freestyle cells, no tag mentioned, purified by Zn IMAC, anion exchange and size exclusion; monomer; bait region cleaved by chymotrypsin in the assay
T1 sequence (A8K2U0 18-1454): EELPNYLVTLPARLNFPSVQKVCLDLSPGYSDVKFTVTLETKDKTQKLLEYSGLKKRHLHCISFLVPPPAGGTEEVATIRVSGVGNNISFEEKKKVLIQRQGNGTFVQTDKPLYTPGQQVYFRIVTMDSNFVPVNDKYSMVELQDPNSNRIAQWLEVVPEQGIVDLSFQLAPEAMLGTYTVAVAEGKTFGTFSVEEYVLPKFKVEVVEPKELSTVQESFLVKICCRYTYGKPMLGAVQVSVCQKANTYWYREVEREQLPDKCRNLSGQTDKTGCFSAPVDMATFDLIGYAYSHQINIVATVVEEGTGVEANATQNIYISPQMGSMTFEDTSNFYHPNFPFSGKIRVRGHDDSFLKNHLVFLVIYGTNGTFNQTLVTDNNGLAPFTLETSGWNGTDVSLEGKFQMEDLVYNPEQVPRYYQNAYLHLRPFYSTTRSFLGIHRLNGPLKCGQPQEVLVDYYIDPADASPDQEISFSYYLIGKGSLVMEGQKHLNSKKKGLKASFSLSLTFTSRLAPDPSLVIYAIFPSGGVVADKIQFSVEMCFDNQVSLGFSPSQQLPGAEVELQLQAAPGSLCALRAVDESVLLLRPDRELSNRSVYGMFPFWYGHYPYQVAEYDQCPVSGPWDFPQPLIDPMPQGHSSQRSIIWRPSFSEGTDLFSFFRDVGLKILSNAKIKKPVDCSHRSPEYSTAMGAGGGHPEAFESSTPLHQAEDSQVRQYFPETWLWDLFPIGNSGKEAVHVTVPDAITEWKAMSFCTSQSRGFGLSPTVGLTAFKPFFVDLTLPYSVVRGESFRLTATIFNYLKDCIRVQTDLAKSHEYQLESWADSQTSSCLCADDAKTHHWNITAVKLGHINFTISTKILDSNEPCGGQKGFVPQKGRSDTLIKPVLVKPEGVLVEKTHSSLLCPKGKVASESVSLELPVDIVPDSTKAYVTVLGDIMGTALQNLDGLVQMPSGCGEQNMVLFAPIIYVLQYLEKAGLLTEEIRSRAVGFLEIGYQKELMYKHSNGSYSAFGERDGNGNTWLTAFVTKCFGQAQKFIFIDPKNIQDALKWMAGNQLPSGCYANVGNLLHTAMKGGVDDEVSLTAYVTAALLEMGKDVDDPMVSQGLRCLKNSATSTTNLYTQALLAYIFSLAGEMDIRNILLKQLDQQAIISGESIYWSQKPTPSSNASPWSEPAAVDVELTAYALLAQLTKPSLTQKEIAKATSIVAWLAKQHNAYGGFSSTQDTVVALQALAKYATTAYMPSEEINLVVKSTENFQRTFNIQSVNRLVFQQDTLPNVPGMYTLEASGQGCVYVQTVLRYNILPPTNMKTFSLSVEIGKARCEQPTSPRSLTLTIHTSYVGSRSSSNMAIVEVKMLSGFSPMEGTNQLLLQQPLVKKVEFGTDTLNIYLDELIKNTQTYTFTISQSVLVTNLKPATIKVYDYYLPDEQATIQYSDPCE
Kind of assay: LC-MS/MS PRM of the pepsin-digested thiol ester peptide conjugate. Conditions: covalent amide at thiol ester Gln-973; A2ML1 activated by chymotrypsin; 200 mM glycine, HBS pH 7.4, 37 °C. Format: biochemical.

The target in assay [2] is T2, A2M (α2-macroglobulin) (Homo sapiens, UniProt P01023).
T2 construct: WT purified from plasma; N1088H recombinant from HEK293 cells (gene based on mRNA M11311), native form enriched by LRP1 depletion; tetramer; cleaved by chymotrypsin in the assay
T2 sequence (P01023 24-1474): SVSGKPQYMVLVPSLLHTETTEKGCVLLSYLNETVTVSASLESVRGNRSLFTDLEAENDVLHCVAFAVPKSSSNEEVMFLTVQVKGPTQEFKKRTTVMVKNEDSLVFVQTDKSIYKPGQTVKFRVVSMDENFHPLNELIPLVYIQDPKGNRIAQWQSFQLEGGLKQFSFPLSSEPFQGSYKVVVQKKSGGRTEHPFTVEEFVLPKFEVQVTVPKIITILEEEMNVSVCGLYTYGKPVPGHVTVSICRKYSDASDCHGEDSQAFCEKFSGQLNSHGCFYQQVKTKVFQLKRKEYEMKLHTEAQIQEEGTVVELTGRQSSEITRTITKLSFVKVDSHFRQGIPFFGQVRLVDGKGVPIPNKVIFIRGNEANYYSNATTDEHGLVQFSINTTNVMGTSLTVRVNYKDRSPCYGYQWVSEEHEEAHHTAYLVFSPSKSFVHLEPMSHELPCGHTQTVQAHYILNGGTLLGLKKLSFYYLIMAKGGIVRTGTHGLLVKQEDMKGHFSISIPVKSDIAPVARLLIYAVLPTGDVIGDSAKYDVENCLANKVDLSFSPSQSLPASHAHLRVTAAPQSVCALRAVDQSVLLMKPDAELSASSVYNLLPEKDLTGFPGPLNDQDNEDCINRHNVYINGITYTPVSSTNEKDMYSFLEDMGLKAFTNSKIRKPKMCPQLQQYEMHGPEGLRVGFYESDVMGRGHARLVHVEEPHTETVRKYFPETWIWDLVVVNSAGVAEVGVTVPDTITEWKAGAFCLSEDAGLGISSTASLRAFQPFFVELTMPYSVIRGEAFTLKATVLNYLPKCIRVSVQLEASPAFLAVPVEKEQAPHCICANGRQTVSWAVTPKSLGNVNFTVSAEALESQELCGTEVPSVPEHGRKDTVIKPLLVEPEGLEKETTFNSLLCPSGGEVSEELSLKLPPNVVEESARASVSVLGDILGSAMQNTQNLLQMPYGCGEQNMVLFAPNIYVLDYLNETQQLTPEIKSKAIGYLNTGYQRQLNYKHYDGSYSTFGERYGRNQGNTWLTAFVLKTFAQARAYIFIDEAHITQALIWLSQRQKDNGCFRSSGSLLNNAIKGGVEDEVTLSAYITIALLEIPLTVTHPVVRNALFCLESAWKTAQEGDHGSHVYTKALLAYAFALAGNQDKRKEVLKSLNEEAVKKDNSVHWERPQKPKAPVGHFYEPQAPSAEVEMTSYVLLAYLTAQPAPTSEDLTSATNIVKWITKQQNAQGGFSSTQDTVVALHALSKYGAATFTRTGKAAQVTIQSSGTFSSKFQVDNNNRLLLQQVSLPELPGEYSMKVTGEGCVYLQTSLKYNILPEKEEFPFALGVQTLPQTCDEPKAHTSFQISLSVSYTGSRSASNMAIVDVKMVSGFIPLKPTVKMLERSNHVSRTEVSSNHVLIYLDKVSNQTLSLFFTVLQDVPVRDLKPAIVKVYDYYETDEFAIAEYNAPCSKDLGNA
Described as above. It counts as biochemical. Conditions: covalent amide at thiol ester Gln-975; plasma-purified A2M activated by chymotrypsin; 200 mM glycine, HBS pH 7.4, 37 °C.

The target in assay [3] is Acetylated thermolysin (Geobacillus stearothermophilus) (UniProt P00800).
The target in assay [4] is T3, Thermolysin from Geobacillus stearothermophilus, unmodified (Geobacillus stearothermophilus, UniProt P00800 233-548).
T3 sequence (looked up): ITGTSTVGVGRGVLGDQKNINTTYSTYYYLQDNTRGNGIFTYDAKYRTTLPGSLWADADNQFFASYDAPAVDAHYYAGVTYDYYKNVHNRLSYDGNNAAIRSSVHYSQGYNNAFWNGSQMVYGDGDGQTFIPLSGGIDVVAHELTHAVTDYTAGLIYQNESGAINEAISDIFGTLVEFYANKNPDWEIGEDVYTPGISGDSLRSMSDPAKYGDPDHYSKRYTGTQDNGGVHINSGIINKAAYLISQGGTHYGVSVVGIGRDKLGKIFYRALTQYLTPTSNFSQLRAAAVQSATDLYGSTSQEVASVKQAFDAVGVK
Kind of assay: cell-based or functional assay.

Substitutions are numbered along the chain they refer to. Numbers in names are those of the source.

On to `NCC(=O)O` [glycine], for which the “LC-MS/MS PRM of the pepsin-digested thiol ester peptide conjugate” value is “both WT and H1084N A2ML1s reacted with the amine substrate glycine” in assay [1]; “both A2Ms were able to conjugate glycine” in assay [2].

B1: Human α2-macroglobulin-like protein 1 (A2ML1), recombinant wild type (natural protein, UniProt A8K2U0-1 18-1454, looked up)
chain: T1 sequence (A8K2U0 18-1454)
modifications: internal thiol ester in which Gln-973 participates
The molecule B1 came in with an inhibition of acetylated thermolysin's cleavage of resorufin-labeled casein, pH 7.8; molar surplus of A2ML1 needed for full inhibition (fold molar surplus of A2ML1) in assay [3] of 6. For the same molecule, in assay [4], the “inhibition of thermolysin's cleavage of resorufin-labeled casein, pH 7.8; molar surplus of A2ML1 needed for full inhibition” value was ~2 fold molar surplus of A2ML1 and the “inhibition of thermolysin's cleavage of resorufin-labeled casein, reaction at pH 5; surplus of A2ML1 needed for full inhibition” value is ~4 fold surplus of A2ML1.

B2: A2ML1 H1084N mutant (natural protein, human, UniProt A8K2U0-1 18-1454, looked up)
chain: T1 sequence (A8K2U0 18-1454) with H1067N
modifications: internal thiol ester in which Gln-973 participates
In the case of B2, in assay [4], the “inhibition of thermolysin's cleavage of resorufin-labeled casein, pH 7.8; molar surplus of A2ML1 needed for full inhibition” value is ~2 fold molar surplus of A2ML1 and the “inhibition of thermolysin's cleavage of resorufin-labeled casein, reaction at pH 5; surplus of A2ML1 needed for full inhibition” value was ~4 fold surplus of A2ML1.
